Source: publication PMC9846250

How the values were obtained:
[1] = dynamic light scattering; 25°C, 90°, purified paramyosin in PBS pH 7.5 with 0.15, 0.5 and 1 M KCl; two populations by hydrodynamic radius (dimer, aggregates); number fractions calculated from the scattered intensities; settings: other: dynamic light scattering
[2] = molecular target: paramyosin from giant squid (Dosidicus gigas) (giant squid (Dosidicus gigas)); test: as above
[3] = molecular target: paramyosin from giant squid (Dosidicus gigas) (giant squid (Dosidicus gigas)); test: static light scattering; Debye plot, 25°C, 90°, paramyosin 0.01-0.1 mg/ml in PBS pH 7.5 with 0.15, 0.5 and 1.0 M KCl; apparent Mw; monomers to dimer

percent of molecules in dimeric form [2] [%] | stoichiometry N [3] | Substance | dimers per aggregate [1]
– | – | paramyosin from giant squid (Dosidicus gigas) | there are ca. 5 dimer paramyosin particles inside an aggregate
> 99 | 2 | paramyosin from giant squid (Dosidicus gigas) (natural protein) | –
